Drawing on publication PMC6219580, “Conversion of an amide to a high-energy thioester by Staphylococcus aureus sortase A is powered by variable binding affinity for calcium” (Scientific Reports, 2018), this text covers Kd for one molecule.

Where no end group is shown, it is not given here.

The experiment has as its target T1, Staphylococcus aureus sortase A C184A mutant (residues 60-206) (Staphylococcus aureus, UniProt Q2FV99 60-206, C184A).
T1 construct: Sortase A, Staphylococcus aureus, residues 60-206 (SrtAΔN59) with the active-site mutation C184A; Uniformly 15N-labelled for the NMR titrations; gene cloned into a PET3a vector; also called SrtA C184A; active-site mutant C184A; source: E. coli BL21 (Rosetta), purified (anion exchange, Superdex75 gel filtration)
T1 sequence (looked up): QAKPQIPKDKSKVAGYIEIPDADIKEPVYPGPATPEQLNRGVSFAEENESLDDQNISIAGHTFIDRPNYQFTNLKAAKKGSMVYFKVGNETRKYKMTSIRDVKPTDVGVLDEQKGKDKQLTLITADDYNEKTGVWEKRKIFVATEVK
In words: NMR titration; 15N-HSQC titration of the protein-Ca2+ complex at increased concentration with QALPETG-NH2; linear chemical shift changes only, far from saturation. The following applies: both partners purified.

In general, Kd refers to a measure of binding affinity in units of concentration.

B1: QALPETG-NH2 (peptide)
peptide: QALPETG-NH2
notes: substrate peptide with the canonical LPXTG sorting motif; also called substrate peptide; source: synthetic peptide, bought: KE Biochem Co. Ltd (China)
As for B1, the Kd is over 50 mM.
